Assays:
[1] = target: human IGF1R-luciferase fusion protein (IGF1R-Luc) (human); assay: bridge assay: immobilized IGF1R-PGA14tag, antibody, IGF1R-Luc
[2] = target: human IGF1R-luciferase fusion protein (IGF1R-Luc) (human); assay: bridge assay: immobilized IGF1R-PGA14tag, antibody at 3 ng/ml, IGF1R-Luc
[3] = target: human IGF1R-luciferase fusion protein (IGF1R-Luc) (human); assay: bridge assay: immobilized IGF1R-PGA14tag, antibody at 12 ng/ml, IGF1R-Luc
[4] = target: human IGF1R-luciferase fusion protein (IGF1R-Luc) (human); assay: bridge assay: immobilized IGF1R-PGA14tag, antibody at 49 ng/ml, IGF1R-Luc
[5] = target: human IGF1R-luciferase fusion protein (IGF1R-Luc) (human); assay: bridge assay: immobilized IGF1R-PGA14tag, antibody at 0.2 ng/ml, IGF1R-Luc
[6] = target: human IGF1R-luciferase fusion protein (IGF1R-Luc) (human); assay: bridge assay: immobilized IGF1R-PGA14tag, antibody at 0.8 ng/ml, IGF1R-Luc
[7] = target: human IGF1R-luciferase fusion protein (IGF1R-Luc) (human); assay: bridge assay: immobilized IGF1R-PGA14tag, antibody at 195 ng/ml, IGF1R-Luc
[8] = target: human IGF1R-luciferase fusion protein (IGF1R-Luc) (human); assay: bridge assay: immobilized IGF1R-PGA14tag, antibody at 781 ng/ml, IGF1R-Luc
[9] = target: human IGF1R-luciferase fusion protein (IGF1R-Luc) (human); assay: bridge assay: immobilized IGF1R-PGA14tag, antibody at 0.05 ng/ml, IGF1R-Luc
[10] = target: human IGF1R-luciferase fusion protein (IGF1R-Luc) (human); assay: bridge assay: immobilized IGF1R-PGA14tag, antibody at 3125 ng/ml, IGF1R-Luc
[11] = target: human IGF1R-luciferase fusion protein (IGF1R-Luc) (human); assay: bridge assay: immobilized IGF1R-PGA14tag, antibody at 12500 ng/ml, IGF1R-Luc
[12] = target: human IGF1R-luciferase fusion protein (IGF1R-Luc) (human); assay: bridge assay: immobilized IGF1R-PGA14tag, antibody at 50000 ng/ml, IGF1R-Luc

human IGF1R-luciferase fusion protein (IGF1R-Luc) (human), sequence (chain, as listed by the source limits assumed): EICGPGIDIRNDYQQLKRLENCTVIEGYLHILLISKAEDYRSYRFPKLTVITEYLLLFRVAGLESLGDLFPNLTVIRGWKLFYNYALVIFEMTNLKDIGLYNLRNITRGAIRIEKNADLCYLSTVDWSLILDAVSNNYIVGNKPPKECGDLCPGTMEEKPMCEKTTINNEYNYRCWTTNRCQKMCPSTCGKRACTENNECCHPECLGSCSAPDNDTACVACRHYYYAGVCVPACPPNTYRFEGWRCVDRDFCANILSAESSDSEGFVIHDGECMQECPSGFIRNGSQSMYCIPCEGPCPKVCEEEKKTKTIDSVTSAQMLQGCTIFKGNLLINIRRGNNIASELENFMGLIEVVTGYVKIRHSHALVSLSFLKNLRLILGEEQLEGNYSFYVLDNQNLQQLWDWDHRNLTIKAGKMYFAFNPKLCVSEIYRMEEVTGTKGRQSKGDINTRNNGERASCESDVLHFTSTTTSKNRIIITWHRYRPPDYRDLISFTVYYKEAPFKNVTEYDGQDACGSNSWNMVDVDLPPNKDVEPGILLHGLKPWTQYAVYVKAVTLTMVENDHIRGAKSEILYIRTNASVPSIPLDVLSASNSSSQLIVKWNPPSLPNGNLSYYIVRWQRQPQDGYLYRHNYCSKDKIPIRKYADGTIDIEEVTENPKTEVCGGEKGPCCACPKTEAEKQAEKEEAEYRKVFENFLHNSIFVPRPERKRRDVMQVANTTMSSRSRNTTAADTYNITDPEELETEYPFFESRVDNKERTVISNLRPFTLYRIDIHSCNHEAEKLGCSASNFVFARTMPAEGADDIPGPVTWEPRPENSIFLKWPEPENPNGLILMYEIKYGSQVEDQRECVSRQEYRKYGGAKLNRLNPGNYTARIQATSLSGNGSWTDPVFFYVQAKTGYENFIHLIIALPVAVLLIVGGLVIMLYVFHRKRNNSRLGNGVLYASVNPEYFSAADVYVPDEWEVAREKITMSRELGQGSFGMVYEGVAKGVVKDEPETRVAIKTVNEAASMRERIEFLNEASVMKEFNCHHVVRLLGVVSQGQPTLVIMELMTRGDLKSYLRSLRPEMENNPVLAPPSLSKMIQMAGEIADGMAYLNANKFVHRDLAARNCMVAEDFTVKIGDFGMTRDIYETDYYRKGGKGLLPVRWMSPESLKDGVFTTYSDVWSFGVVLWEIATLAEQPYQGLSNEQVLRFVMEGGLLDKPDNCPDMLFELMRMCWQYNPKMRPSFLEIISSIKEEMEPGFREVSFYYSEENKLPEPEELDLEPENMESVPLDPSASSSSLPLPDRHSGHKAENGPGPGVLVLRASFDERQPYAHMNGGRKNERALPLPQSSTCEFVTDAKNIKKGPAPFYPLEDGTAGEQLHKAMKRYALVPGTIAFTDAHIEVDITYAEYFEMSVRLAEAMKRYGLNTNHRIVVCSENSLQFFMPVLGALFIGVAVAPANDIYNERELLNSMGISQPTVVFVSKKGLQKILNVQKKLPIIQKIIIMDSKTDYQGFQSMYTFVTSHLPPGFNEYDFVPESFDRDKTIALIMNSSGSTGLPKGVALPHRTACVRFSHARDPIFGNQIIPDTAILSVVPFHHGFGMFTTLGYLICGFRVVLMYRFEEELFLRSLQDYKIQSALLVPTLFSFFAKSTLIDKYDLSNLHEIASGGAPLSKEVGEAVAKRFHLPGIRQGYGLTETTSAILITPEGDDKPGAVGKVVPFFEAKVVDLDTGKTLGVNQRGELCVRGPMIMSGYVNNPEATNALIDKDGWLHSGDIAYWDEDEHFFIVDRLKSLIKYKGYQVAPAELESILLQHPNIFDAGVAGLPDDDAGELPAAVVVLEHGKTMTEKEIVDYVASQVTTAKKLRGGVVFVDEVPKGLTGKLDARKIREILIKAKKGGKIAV

detection limit [1]: 0.2 ng/mL
RLU bound [2]: 11800 RLU
RLU bound [3]: 27000 RLU
RLU bound [4]: 88900 RLU
RLU bound [5]: 5900 RLU
RLU bound [6]: 8860 RLU
RLU bound [7]: 235000 RLU
RLU bound [8]: 476000 RLU
RLU bound [9]: 5370 RLU
RLU bound [10]: 627000 RLU
RLU bound [11]: 767000 RLU
RLU bound [12]: 805000 RLU
Substance: Monoclonal antibody to the extracellular domain of IGF1R (anti-IGF1R clone#24-75, Millipore, USA)

Reference: US20150301040A1
